Test results: US20240182563A1 (GENOME, published 2024)
Like-named read-outs stand apart in the source and are kept apart here.

Tests used:
Assay in all cases: ELISA, plate coated with CNTN4-10xHis, anti-human Fc-HRP
mouse CNTN4-10xHis [1] = biological target: T1, mouse CNTN4-10xHis (mouse, UniProt Q69Z26 19-1000)
T1 sequence: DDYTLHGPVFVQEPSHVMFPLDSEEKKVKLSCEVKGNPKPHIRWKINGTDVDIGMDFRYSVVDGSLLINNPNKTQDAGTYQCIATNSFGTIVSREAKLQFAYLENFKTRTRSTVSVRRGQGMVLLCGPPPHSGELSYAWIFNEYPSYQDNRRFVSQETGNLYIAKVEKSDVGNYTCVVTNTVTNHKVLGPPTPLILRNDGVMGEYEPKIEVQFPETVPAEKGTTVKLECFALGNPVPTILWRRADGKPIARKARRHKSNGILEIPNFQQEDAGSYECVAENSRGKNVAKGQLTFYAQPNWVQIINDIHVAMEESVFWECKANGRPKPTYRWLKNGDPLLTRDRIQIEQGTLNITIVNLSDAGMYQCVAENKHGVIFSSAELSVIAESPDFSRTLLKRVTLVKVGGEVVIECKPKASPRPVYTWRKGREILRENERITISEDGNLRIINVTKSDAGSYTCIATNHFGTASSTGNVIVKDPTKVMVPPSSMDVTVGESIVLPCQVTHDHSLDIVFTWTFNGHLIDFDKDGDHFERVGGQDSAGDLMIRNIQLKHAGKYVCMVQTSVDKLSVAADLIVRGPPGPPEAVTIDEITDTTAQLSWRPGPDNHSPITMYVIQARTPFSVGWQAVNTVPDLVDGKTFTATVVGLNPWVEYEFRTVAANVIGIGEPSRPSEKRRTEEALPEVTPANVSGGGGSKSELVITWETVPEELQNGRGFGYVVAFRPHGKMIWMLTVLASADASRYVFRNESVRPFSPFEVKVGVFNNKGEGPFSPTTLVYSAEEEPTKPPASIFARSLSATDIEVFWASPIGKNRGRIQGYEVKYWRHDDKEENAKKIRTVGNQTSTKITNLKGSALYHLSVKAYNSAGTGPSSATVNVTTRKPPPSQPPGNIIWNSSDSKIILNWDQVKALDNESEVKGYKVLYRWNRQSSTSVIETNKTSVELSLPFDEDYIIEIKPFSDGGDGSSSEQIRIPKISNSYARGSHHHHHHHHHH
Protocol: (§1) An ELISA test was performed on A-01 prepared in Example 2.1. An ELISA plate was coated with 200 ng of antigens (human CNTN4-10xHis or mouse CNTN4-10xHis). For antibody binding, A-01 was serially diluted from a maximum of 1 μM to 0.0001 nM, thereby binding to the antigen. Anti-human Fc-HRP was used as a secondary antibody for antibody detection. Color was developed using ABTS, which is a color developing reagent, and the absorbance at 405 nm was measured.

mouse CNTN4-10xHis [2] = biological target: T1, mouse CNTN4-10xHis; remark: listed apart in the source
Protocol: as §1, with “The LAH2, L1H2, and L2H2 antibodies” for “An ELISA test was performed on A-01”, “3.1 were subjected to an ELISA test together with A-01.” for “2.1.”, “antibodies were” for “A-01 was”

human CNTN4-10xHis = biological target: T2, human CNTN4-10xHis (human, UniProt Q8IWV2 19-1000)
T2 sequence: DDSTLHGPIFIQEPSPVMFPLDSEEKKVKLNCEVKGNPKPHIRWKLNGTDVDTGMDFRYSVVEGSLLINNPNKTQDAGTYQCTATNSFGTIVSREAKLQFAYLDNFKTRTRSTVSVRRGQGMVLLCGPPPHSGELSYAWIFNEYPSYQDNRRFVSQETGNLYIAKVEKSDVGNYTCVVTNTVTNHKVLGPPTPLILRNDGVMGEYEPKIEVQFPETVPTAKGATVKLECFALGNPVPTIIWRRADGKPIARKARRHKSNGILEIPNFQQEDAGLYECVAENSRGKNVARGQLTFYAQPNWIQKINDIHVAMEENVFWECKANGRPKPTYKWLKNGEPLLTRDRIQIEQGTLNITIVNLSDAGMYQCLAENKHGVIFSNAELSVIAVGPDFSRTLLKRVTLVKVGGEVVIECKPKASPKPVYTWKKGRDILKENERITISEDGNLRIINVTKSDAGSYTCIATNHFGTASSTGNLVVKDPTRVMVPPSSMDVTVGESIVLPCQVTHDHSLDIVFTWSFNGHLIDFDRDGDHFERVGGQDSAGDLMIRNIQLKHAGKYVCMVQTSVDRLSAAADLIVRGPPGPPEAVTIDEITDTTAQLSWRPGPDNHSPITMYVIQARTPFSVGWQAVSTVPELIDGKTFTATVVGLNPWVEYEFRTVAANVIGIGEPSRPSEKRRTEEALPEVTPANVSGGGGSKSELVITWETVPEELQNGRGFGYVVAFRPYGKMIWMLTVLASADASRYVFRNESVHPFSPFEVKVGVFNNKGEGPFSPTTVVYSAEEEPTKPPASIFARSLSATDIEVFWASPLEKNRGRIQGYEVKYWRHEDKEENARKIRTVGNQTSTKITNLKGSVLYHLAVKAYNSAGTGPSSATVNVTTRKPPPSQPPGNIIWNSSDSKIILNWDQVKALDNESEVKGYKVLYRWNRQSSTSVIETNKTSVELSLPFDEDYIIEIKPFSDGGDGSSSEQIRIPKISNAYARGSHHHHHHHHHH
Protocol: as §1, with “The LAH2, L1H2, and L2H2 antibodies” for “An ELISA test was performed on A-01”, “3.1 were subjected to an ELISA test together with A-01.” for “2.1.”, “antibodies were” for “A-01 was”

EC50 (mouse CNTN4-10xHis [1]): 0.011 nM
EC50 (mouse CNTN4-10xHis [2]): 0.011 nM
EC50 (human CNTN4-10xHis): 0.011 nM
B1: anti-CNTN4 129 chimeric IgG4-S228P (antibody, V domains shown)
VH: AVTLDESEGGLQTPGGALSLVCKASGFTFSSFNMFWVRQAPGKGLEYVAEISGGGGSTWYAPAVKGRATISRDNGQSTVRLQLNNLRAEDTGTYYCAKSADTWSYGAATIDAWGHGTEVIVSS
VL: ALTQPSSVSANLGETVKITCSGSSGSYGWYQQKSPGSAPVTLIYDNTNRPSDIPSRFSGSGSGSTGTLTITGVRAEDEAVYYCGGYDGSTDVFGAGTTLTVL
notes: chicken-human chimeric IgG4-S228P made from S129, kappa light chain constant region (Kappa select); also called A-01; LAHA
